Experimental findings from IntAct's records for PubMed 10545448 are described below.

Sequences and labels used below:
B1: Meiosis-inducing protein 1 (Saccharomyces cerevisiae), P21190 (parent)
chain: MQADMHGKLHAALEDGFFLFPFEQQQQPNIYYDTTTDQEDRPCFSFGSTISPRSWHFEKSDKIASSQLQNLVHTQPIHLINPQILFNEEFLNLENIDSQPISKETKTTKDCTMATGPERGKKSSESTRSSSLSSLFSNDESASTFHSSFNNHDNFQKSNRNGDDIDISDTIKYETNTNAQKDIKIFQENFEFNEFPYTQDFYPYTTNYTYSKPTNIHESINSKNTDSYSQYQDQFPPHTDNIHSFNNRHYSNHKSTNCNYYNNTSNNNNASDNVYEADPFIDEPQVPSYYYPLEIAFDVEKSPPPSLQKLNSKELEFLKKLNSKLSRYAAAYSFSSSNDQDYYDKVRFQEISYKFSKTYS
partner: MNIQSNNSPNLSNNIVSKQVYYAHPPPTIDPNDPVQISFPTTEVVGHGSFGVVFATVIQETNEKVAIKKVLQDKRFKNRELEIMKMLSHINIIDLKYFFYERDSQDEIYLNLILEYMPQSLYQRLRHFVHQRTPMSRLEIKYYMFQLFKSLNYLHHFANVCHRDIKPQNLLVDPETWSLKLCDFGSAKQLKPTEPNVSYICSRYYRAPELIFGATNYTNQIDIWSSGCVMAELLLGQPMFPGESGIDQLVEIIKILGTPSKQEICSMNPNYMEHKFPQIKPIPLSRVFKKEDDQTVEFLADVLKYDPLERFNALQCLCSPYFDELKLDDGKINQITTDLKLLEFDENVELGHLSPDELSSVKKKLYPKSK
B2: Meiosis-inducing protein 1 (Saccharomyces cerevisiae), P21190 (parent)
chain: B1 chain
partner: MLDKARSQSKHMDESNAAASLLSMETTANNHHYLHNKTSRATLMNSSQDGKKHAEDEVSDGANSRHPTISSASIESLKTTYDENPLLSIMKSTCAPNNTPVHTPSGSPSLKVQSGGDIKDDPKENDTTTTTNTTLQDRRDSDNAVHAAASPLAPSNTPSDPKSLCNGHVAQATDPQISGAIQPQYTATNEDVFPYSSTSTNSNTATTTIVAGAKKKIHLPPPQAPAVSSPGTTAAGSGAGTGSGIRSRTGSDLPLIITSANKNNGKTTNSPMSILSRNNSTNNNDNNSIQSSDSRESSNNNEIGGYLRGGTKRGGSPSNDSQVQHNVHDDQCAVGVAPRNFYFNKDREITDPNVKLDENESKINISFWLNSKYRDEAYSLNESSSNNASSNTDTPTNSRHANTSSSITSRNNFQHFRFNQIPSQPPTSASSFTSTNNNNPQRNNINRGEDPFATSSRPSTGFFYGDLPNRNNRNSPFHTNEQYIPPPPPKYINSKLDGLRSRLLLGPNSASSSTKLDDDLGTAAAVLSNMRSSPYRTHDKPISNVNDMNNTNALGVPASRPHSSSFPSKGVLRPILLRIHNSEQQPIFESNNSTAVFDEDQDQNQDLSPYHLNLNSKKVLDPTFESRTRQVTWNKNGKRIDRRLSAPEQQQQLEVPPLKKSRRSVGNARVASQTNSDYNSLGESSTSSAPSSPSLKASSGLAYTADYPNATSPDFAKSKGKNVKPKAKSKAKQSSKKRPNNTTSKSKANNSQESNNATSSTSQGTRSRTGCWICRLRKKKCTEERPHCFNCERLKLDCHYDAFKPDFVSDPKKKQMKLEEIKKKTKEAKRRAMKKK

Variants of B1 are the subject of one test. The settings on record: with rim11_yeast RIM11, P38615.
As for MQADMHGKLHAALEDGFFLFPFEQQQQPNIYYDTTTDQEDRPCFSFGSTISPRSWHFEKSDKIASSQLQNLVHTQPIHLINPQILFNEEFLNLENIDSQPISKETKTTKDCTMATGPERGKKSSESTRSSSLSSLFSNDESASTFHSSFNNHDNFQKSNRNGDDIDISDTIKYETNTNAQKDIKIFQENFEFNEFPYTQDFYPYTTNYTYSKPTNIHESINSKNTDSYSQYQDQFPPHTDNIHSFNNRHYSNHKSTNCNYYNNTSNNNNASDNVYEADPFIDEPQVPSYYYPLEIAFDVEKSPPPSLQKLNSKELEFLKKFNSKLSRYAAAYSFSSSNDQDYYDKVRFQEISYKFSKTYS [L321F], the “effect of a mutation on the interaction” value is reported as “disrupting interaction strength”.
Still for that read-out and setting: for MQADMHGKLHAALEDGFFLFPFEQQQQPNIYYDTTTDQEDRPCFSFGSTISPRSWHFEKSDKIASSQLQNLVHTQPIHLINPQILFNEEFLNLENIDSQPISKETKTTKDCTMATGPERGKKSSESTRSSSLSSLFSNDESASTFHSSFNNHDNFQKSNRNGDDIDISDTIKYETNTNAQKDIKIFQENFEFNEFPYTQDFYPYTTNYTYSKPTNIHESINSKNTDSYSQYQDQFPPHTDNIHSFNNRHYSNHKSTNCNYYNNTSNNNNASDNVYEADPFIDEPQVPSYYYPLEIAFDVEKSPPPSLQKLNSKELEFLKKFNSKLSRYAAAYSFSSSNDQDYYDKVRFQEISYKFSKTYF [L321F;S360F] the value was “decreasing interaction strength”; for MQADMHGKLHAALEDGFFLFPFEQQQQPNIYYDTTTDQEDRPCFSFGSTISPRSWHFEKSDKIASSQLQNLVHTQPIHLINPQILFNEEFLNLENIDSQPISKETKTTKDCTMATGPERGKKSSESTRSSSLSSLFSNDESASTFHSSFNNHDNFQKSNRNGDDIDISDTIKYETNTNAQKDIKIFQENFEFNEFPYTQDFYPYTTNYTYSKPTNIHESINSKNTDSYSQYQDQFPPHTDNIHSFNNRHYSNHKSTNCNYYNNTSNNNNASDNVYEADPFIDEPQVPSYYYPLEIAFDVEKSPPPSLQKLNSKELEFLKKLNSKLSRYAAAYSFSSSNDQDYYDKVKFQEISYKFSKTYS [R347K], “disrupting interaction strength”.
Still for that read-out and setting: the entry for MQADMHGKLHAALEDGFFLFPFEQQQQPNIYYDTTTDQEDRPCFSFGSTISPRSWHFEKSDKIASSQLQNLVHTQPIHLINPQILFNEEFLNLENIDSQPISKETKTTKDCTMATGPERGKKSSESTRSSSLSSLFSNDESASTFHSSFNNHDNFQKSNRNGDDIDISDTIKYETNTNAQKDIKIFQENFEFNEFPYTQDFYPYTTNYTYSKPTNIHESINSKNTDSYSQYQDQFPPHTDNIHSFNNRHYSNHKSTNCNYYNNTSNNNNASDNVYEADPFIDEPQVPSYYYPLEIAFDVEKSPPPSLQKLNSKELEFLKKLNSKLSRYAAAYSFSSSNDQDYYDKVKFQEISYKFSKTYF [R347K;S360F] is “decreasing interaction strength”.

Another test covers variants of B1. To be noted: with rim11_yeast RIM11, P38615. The source holds these as a separate data set.
For MQADMHGKLHAALEDGFFLFPFEQQQQPNIYYDTTTDQEDRPCFSFGSTISPRSWHFEKSDKIASSQLQNLVHTQPIHLINPQILFNEEFLNLENIDSQPISKETKTTKDCTMATGPERGKKSSESTRSSSLSSLFSNDESASTFHSSFNNHDNFQKSNRNGDDIDISDTIKYETNTNAQKDIKIFQENFEFNEFPYTQDFYPYTTNYTYSKPTNIHESINSKNTDSYSQYQDQFPPHTDNIHSFNNRHYSNHKSTNCNYYNNTSNNNNASDNVYEADPFIDEPQVPSYYYPLEIAFDVEKSPPPSLQKLNSKELEFLKKFNSKLSRYAAAYSFSSSNDQDYYDKVRFQEISYKFSKTYF [L321F;S360F], the “effect of a mutation on the interaction” value is recorded as “with no effect”.
As for MQADMHGKLHAALEDGFFLFPFEQQQQPNIYYDTTTDQEDRPCFSFGSTISPRSWHFEKSDKIASSQLQNLVHTQPIHLINPQILFNEEFLNLENIDSQPISKETKTTKDCTMATGPERGKKSSESTRSSSLSSLFSNDESASTFHSSFNNHDNFQKSNRNGDDIDISDTIKYETNTNAQKDIKIFQENFEFNEFPYTQDFYPYTTNYTYSKPTNIHESINSKNTDSYSQYQDQFPPHTDNIHSFNNRHYSNHKSTNCNYYNNTSNNNNASDNVYEADPFIDEPQVPSYYYPLEIAFDVEKSPPPSLQKLNSKELEFLKKLNSKLSRYAAAYSFSSSNDQDYYDKVKFQEISYKFSKTYF [R347K;S360F], the “effect of a mutation on the interaction” value was “with no effect”.
Still for that read-out and setting: the entry for MQADMHGKLHAALEDGFFLFPFEQQQQPNIYYDTTTDQEDRPCFSFGSTISPRSWHFEKSDKIASSQLQNLVHTQPIHLINPQILFNEEFLNLENIDSQPISKETKTTKDCTMATGPERGKKSSESTRSSSLSSLFSNDESASTFHSSFNNHDNFQKSNRNGDDIDISDTIKYETNTNAQKDIKIFQENFEFNEFPYTQDFYPYTTNYTYSKPTNIHESINSKNTDSYSQYQDQFPPHTDNIHSFNNRHYSNHKSTNCNYYNNTSNNNNASDNVYEADPFIDEPQVPSYYYPLEIAFDVEKSPPPSLQKLNSKELEFLKKLNSKLSRYAAAYSFSSSNDQDAADKVRFQEIAAKFAKAAA [Y342A;Y343A;S352A;Y353A;S356A;T358A;Y359A;S360A] is “with no effect”.

Variants of B2 are the subject of another test. The settings on record: with ume6_yeast UME6, P39001.
Take MQADMHGKLHAALEDGFFLFPFEQQQQPNIYYDTTTDQEDRPCFSFGSTISPRSWHFEKSDKIASSQLQNLVHTQPIHLINPQILFNEEFLNLENIDSQPISKETKTTKDCTMATGPERGKKSSESTRSSSLSSLFSNDESASTFHSSFNNHDNFQKSNRNGDDIDISDTIKYETNTNAQKDIKIFQENFEFNEFPYTQDFYPYTTNYTYSKPTNIHESINSKNTDSYSQYQDQFPPHTDNIHSFNNRHYSNHKSTNCNYYNNTSNNNNASDNVYEADPFIDEPQVPSYYYPLEIAFDVEKSPPPSLQKLNSKELEFLKKLNSKLSRYAAAYSFSSSNDQDYYDKVKFQEISYKFSKTYF [R347K;S360F]: the “effect of a mutation on the interaction” value was “disrupting interaction strength”.
On the same count and under the same terms, for MQADMHGKLHAALEDGFFLFPFEQQQQPNIYYDTTTDQEDRPCFSFGSTISPRSWHFEKSDKIASSQLQNLVHTQPIHLINPQILFNEEFLNLENIDSQPISKETKTTKDCTMATGPERGKKSSESTRSSSLSSLFSNDESASTFHSSFNNHDNFQKSNRNGDDIDISDTIKYETNTNAQKDIKIFQENFEFNEFPYTQDFYPYTTNYTYSKPTNIHESINSKNTDSYSQYQDQFPPHTDNIHSFNNRHYSNHKSTNCNYYNNTSNNNNASDNVYEADPFIDEPQVPSYYYPLEIAFDVEKSPPPSLQKLNSKELEFLKKLNSKLSRYAAAYSFSSSNDQDYYDKVKFQEISYKFSKTYS [R347K] the value was “disrupting interaction strength”; for MQADMHGKLHAALEDGFFLFPFEQQQQPNIYYDTTTDQEDRPCFSFGSTISPRSWHFEKSDKIASSQLQNLVHTQPIHLINPQILFNEEFLNLENIDSQPISKETKTTKDCTMATGPERGKKSSESTRSSSLSSLFSNDESASTFHSSFNNHDNFQKSNRNGDDIDISDTIKYETNTNAQKDIKIFQENFEFNEFPYTQDFYPYTTNYTYSKPTNIHESINSKNTDSYSQYQDQFPPHTDNIHSFNNRHYSNHKSTNCNYYNNTSNNNNASDNVYEADPFIDEPQVPSYYYPLEIAFDVEKSPPPSLQKLNSKELEFLKKLNSKLSRYAAAYSFSSSNDQDAADKVRFQEIAAKFAKAAA [Y342A;Y343A;S352A;Y353A;S356A;T358A;Y359A;S360A], “disrupting interaction strength”; for MQADMHGKLHAALEDGFFLFPFEQQQQPNIYYDTTTDQEDRPCFSFGSTISPRSWHFEKSDKIASSQLQNLVHTQPIHLINPQILFNEEFLNLENIDSQPISKETKTTKDCTMATGPERGKKSSESTRSSSLSSLFSNDESASTFHSSFNNHDNFQKSNRNGDDIDISDTIKYETNTNAQKDIKIFQENFEFNEFPYTQDFYPYTTNYTYSKPTNIHESINSKNTDSYSQYQDQFPPHTDNIHSFNNRHYSNHKSTNCNYYNNTSNNNNASDNVYEADPFIDEPQVPSYYYPLEIAFDVEKSPPPSLQKLNSKELEFLKKFNSKLSRYAAAYSFSSSNDQDYYDKVRFQEISYKFSKTYF [L321F;S360F], “decreasing interaction strength”.
Take MQADMHGKLHAALEDGFFLFPFEQQQQPNIYYDTTTDQEDRPCFSFGSTISPRSWHFEKSDKIASSQLQNLVHTQPIHLINPQILFNEEFLNLENIDSQPISKETKTTKDCTMATGPERGKKSSESTRSSSLSSLFSNDESASTFHSSFNNHDNFQKSNRNGDDIDISDTIKYETNTNAQKDIKIFQENFEFNEFPYTQDFYPYTTNYTYSKPTNIHESINSKNTDSYSQYQDQFPPHTDNIHSFNNRHYSNHKSTNCNYYNNTSNNNNASDNVYEADPFIDEPQVPSYYYPLEIAFDVEKSPPPSLQKLNSKELEFLKKLNSKLSRYAAAYSFSSSNDQDYYDKVRFQEIAYKFAKTYA [S352A;S356A;S360A]: the “effect of a mutation on the interaction” value is listed as “decreasing interaction strength”.
For MQADMHGKLHAALEDGFFLFPFEQQQQPNIYYDTTTDQEDRPCFSFGSTISPRSWHFEKSDKIASSQLQNLVHTQPIHLINPQILFNEEFLNLENIDSQPISKETKTTKDCTMATGPERGKKSSESTRSSSLSSLFSNDESASTFHSSFNNHDNFQKSNRNGDDIDISDTIKYETNTNAQKDIKIFQENFEFNEFPYTQDFYPYTTNYTYSKPTNIHESINSKNTDSYSQYQDQFPPHTDNIHSFNNRHYSNHKSTNCNYYNNTSNNNNASDNVYEADPFIDEPQVPSYYYPLEIAFDVEKSPPPSLQKLNSKELEFLKKFNSKLSRYAAAYSFSSSNDQDYYDKVRFQEISYKFSKTYS [L321F], the “effect of a mutation on the interaction” value was “disrupting interaction strength”.
